This data set concerns the molecule itself. Put plainly: MALDI-ToF MS.

B1: Superoxide dismutase 1 (SOD1) from bovine erythrocytes (enzyme)
chain: not shown
As to B1, the binding result is recorded as “binds”.

Values taken from PMC3570234 (Molecular pharmaceutics, 2012).
